Test results as given in patent US20230265164A1 (MIT, published 2023).
Each block holds one binder with its values, some of them ahead of it.

Assays:
CCL25 = target: T1, CCL25 (UniProt O15444 24-150, limits assumed); experiment: MicroScale Thermophoresis; 5 nM NT647-labeled receptor-Fc against a ligand gradient, 25 C
T1 sequence (looked up): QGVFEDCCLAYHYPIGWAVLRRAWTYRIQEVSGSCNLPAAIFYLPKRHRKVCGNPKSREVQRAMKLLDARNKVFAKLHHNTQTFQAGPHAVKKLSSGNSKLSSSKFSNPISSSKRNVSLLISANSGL
Experimental: (§1) MicroScale Thermophoresis (MST) is an optical method detecting changes in thermophoretic movement and TRIC of the protein-attached fluorophore upon ligand binding. Active labelled proteins contribute to the thermophoresis signal upon ligand binding. […] Herein ligand binding experiments were carried out with 5 nM NT647-labeled protein in 1×PBS, 10 mM DTT buffer with different concentration of arginine, against a gradient of respective ligands on a Monolith NT.115 pico instrument at 25° C. Synthesized receptors were labeled with Monolith NT™ 2nd generation protein labeling kit RED-NHS (NanoTemper Technologies) so as to obtain unique fluorescent signals. MST time traces were recorded and analyzed to obtain the highest possible signal-to-noise levels and amplitudes, >5 Fnorm units. The recorded fluorescence was plotted against the concentration of ligand, and curve fitting was performed using the Kd fit formula derived from the law of mass action. For clarity, binding graphs of each independent experiment were normalized to the fraction bound (0=unbound, 1=bound). MST experiments were performed in the Center for Macromolecular Interactions at Harvard Medical School.

IL8 = target: T2, IL8 (UniProt P10145 28-99, limits assumed); experiment: as above
T2 sequence (looked up): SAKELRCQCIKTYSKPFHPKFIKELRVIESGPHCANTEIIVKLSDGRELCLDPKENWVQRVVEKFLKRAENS
Experimental: as §1

- Kd (CCL25): 37.2 nM
B1: CCR9^QTY-Fc (Fc fusion)
chain: MTPTDFTSPIPNMADDYGSESTSSMEDYVNFNFTDFYCEKNNVRQFASHYQPPQYWQTYTTGAQGNSQTTQTYWYCTRVKTMTDMYQQNQATADQQYQTTQPYWATAAADQWKFQTFMCKTTNSMYKMNYYSCTQQTMCTSTDRYTATAQAMRAHTWREKRQQYSKMTCYTTWTQAAAQCTPETQYSQIKEESGIAICTMVYPSDESTKQKSATQTQKTTQGYYQPYTTMACCYTTTTHTQTQAKKSSKHKAQKTTTTTQTTYTQSQYPYNCTQQTQTTDAYAMFISNCATSTNTDTCYQTTQTTAYYHSCQNPTQYTYTGERFRRDLVKTLKNLGCISQAQWVSFTRREGSLKLSSMLLETTSGALSLTETSQVAPAHHHHHHHHHHTETSQVAPAHHHHHHHHHHGSKLVDPRGPTIKPCPPCKCPAPNLLGGPSVFIFPPKIKDVLMISLSPIVTCVVVDVSEDDPDVQISWFVNNVEVHTAQTQTHREDYNSTLRVVSALPIQHQDWMSGKEFKCKVNNKDLPAPIERTISKPKGSVRAPQVYVLPPPEEEMTKKQVTLTCMVTDFMPEDIYVEWTNNGKTELNYKNTEPVLDSDGSYFMYSKLRVEKKNWVERNSYSCSVVHEGLHNHHTTKSFSRTPGK
modifications: NT647 (RED-NHS) fluorescent dye on lysines/N-terminus in the MST assay; positions not given.

- Kd (IL8): 60.3 nM
B2: CXCR2^QTY-Fc (Fc fusion)
chain: MEDFNMESDSFEDFWKGEDLSNYSYSSTLPPFLLDAAPCEPESLEINKYYTTTTYAQTYQQSQQGNSQTMQTTQYSRVGRSVTDTYQQNQAQADQQYAQTQPTWAASKVNGWIFGTFLCKTTSQQKETNYYSGTQQQACTSTDRYLAIVHATRTLTQKRYLVKYTCQSTWGQSQQQAQPTQQYRRTVYSSNVSPACYEDMGNNTANWRMQQRTQPQSYGYTQPQQTMQYCYGFTLRTLFKAHMGQKHRAMRTTYATTQTYQQCWQPYNQTQQADTLMRTQVIQETCERRNHIDRAQDATETQGTQHSCQNPQTYAYTGQKFRHGLLKILAIHGLISKDSLPKDSRPSFVGSSSGHTSTTLTETSQVAPAHHHHHHHHHHGSKLVDPRGPTIKPCPPCKCPAPNLLGGPSVFIFPPKIKDVLMISLSPIVTCVVVDVSEDDPDVQISWFVNNVEVHTAQTQTHREDYNSTLRVVSALPIQHQDWMSGKEFKCKVNNKDLPAPIERTISKPKGSVRAPQVYVLPPPEEEMTKKQVTLTCMVTDFMPEDIYVEWTNNGKTELNYKNTEPVLDSDGSYFMYSKLRVEKKNWVERNSYSCSVVHEGLHNHHTTKSFSRTPGK
modifications: NT647 (RED-NHS) fluorescent dye on lysines/N-terminus in the MST assay; positions not given.
notes: also called CXCR29QTY-Fc
